# Assay results from the Human Domainome abundance scans (Beltran et al. 2025).
# ± gives the uncertainty stated by the source.
# B1: Dynamin-binding protein, residues 242 to 304; numbered along this chain, Q6XZF7 (parent)
# chain: EEPGTYGVALYRFQALEPNELDFEVGDKIRILATLEDGWLEGSLKGRTGIFPYRFVKLCPDTR
# Variants of: B1
# Assay: abundance fitness (aPCA) (normalised: wild type 0, dead -1); higher = more abundant; growth selection in yeast, the domain comes from the species named
# Conditions: Homo sapiens
row,Variant,abundance fitness
1,P3A,-0.337 ± 0.1
2,P3S,0.008 ± 0.053
3,P3R,-0.114 ± 0.059
4,P3F,0.059 ± 0.082
5,E1L,-0.041 ± 0.087
6,E1M,-0.02 ± 0.17
7,E1V,-0.001 ± 0.052
8,E1D,-0.369 ± 0.081
9,E1K,0.009 ± 0.14
10,E1T,-0.111 ± 0.1
11,E1R,-0.063 ± 0.12
12,E1H,-0.8 ± 0.18
13,E1G,-0.163 ± 0.067
14,E1I,0.005 ± 0.077
15,E1N,-0.337 ± 0.087
16,E1Y,-0.23 ± 0.083
17,E1A,-0.512 ± 0.13
18,E1F,-0.277 ± 0.11
19,E1S,-0.112 ± 0.068
20,E1C,-0.189 ± 0.11
21,F13K,-0.207 ± 0.15
22,F13H,0.559 ± 0.059
23,F13Q,-0.212 ± 0.2
24,F13G,-0.677 ± 0.085

row,Variant,abundance fitness
1,F13S,-0.534 ± 0.063
2,F13L,-0.74 ± 0.11
3,F13T,-0.831 ± 0.15
4,F13R,0.11 ± 0.06
5,F13W,-0.483 ± 0.23
6,F13D,-0.585 ± 0.086
7,F13V,-0.71 ± 0.076
8,F13M,-0.072 ± 0.11
9,F13N,-0.023 ± 0.057
10,F13A,-0.804 ± 0.16
11,F13Y,0.213 ± 0.047
12,F13P,-0.644 ± 0.14
13,Q14R,-0.2 ± 0.061
14,Q14L,-0.265 ± 0.07
15,Q14Y,-0.172 ± 0.066
16,Q14I,-0.188 ± 0.057
17,Q14S,-0.321 ± 0.056
18,Q14V,-0.115 ± 0.054
19,Q14N,-0.198 ± 0.065
20,Q14G,-0.696 ± 0.077
21,Q14D,-0.264 ± 0.064
22,Q14W,-0.572 ± 0.18
23,Q14K,-0.205 ± 0.13
24,Q14H,-0.032 ± 0.074

row,Variant,abundance fitness
1,Q14F,-0.413 ± 0.075
2,Q14C,-0.268 ± 0.067
3,Q14T,-0.109 ± 0.063
4,Q14E,-0.131 ± 0.13
5,G7A,0.36 ± 0.056
6,G7Q,-0.258 ± 0.22
7,G7P,-0.86 ± 0.25
8,G7F,-0.734 ± 0.092
9,G7N,-0.719 ± 0.11
10,G7V,0.006 ± 0.049
11,G7S,-0.292 ± 0.051
12,G7Y,-0.661 ± 0.1
13,G7W,-1.27 ± 0.41
14,G7C,0.231 ± 0.045
15,G7D,-0.857 ± 0.14
16,G7E,-0.209 ± 0.18
17,G7R,-0.781 ± 0.1
18,T5E,-0.61 ± 0.17
19,T5S,-0.282 ± 0.055
20,T5G,-0.765 ± 0.093
21,T5A,-0.083 ± 0.066
22,T5L,0.052 ± 0.059
23,T5K,-0.253 ± 0.16
24,T5Q,0 ± 0.16

row,Variant,abundance fitness
1,T5I,-0.183 ± 0.065
2,T5W,-0.132 ± 0.13
3,T5C,-0.143 ± 0.059
4,T5Y,-0.214 ± 0.066
5,T5F,-0.057 ± 0.058
6,T5N,-0.3 ± 0.081
7,T5D,-0.587 ± 0.099
8,T5R,-0.225 ± 0.072
9,Y11G,-0.429 ± 0.067
10,Y11C,-0.124 ± 0.061
11,Y11P,-0.784 ± 0.16
12,Y11T,0.044 ± 0.06
13,Y11K,0.343 ± 0.11
14,Y11E,-0.02 ± 0.1
15,Y11S,-0.196 ± 0.045
16,Y11I,-0.14 ± 0.055
17,Y11M,-0.024 ± 0.11
18,Y11N,-0.137 ± 0.057
19,Y11H,0.022 ± 0.067
20,Y11A,0.217 ± 0.061
21,Y11Q,0.026 ± 0.21
22,Y11L,-0.084 ± 0.056
23,Y11D,-0.281 ± 0.067
24,Y11F,0.01 ± 0.048

row,Variant,abundance fitness
1,Y11R,0.206 ± 0.058
2,Y11V,-0.086 ± 0.049
3,E2K,-0.512 ± 0.22
4,E2T,-0.024 ± 0.076
5,E2C,-0.367 ± 0.082
6,E2N,0.016 ± 0.068
7,E2L,-0.011 ± 0.066
8,E2Q,-0.498 ± 0.19
9,E2S,-0.567 ± 0.087
10,E2R,-0.321 ± 0.085
11,E2V,-0.228 ± 0.058
12,E2D,-0.151 ± 0.066
13,E2H,0.127 ± 0.069
14,E2M,-0.049 ± 0.15
15,E2I,-0.013 ± 0.072
16,E2W,0.044 ± 0.29
17,E2Y,0.015 ± 0.056
18,E2G,-0.166 ± 0.054
19,E2A,-0.586 ± 0.099
20,R12I,-0.737 ± 0.1
21,R12C,-0.477 ± 0.08
22,R12E,-0.469 ± 0.21
23,R12S,-0.12 ± 0.051
24,R12M,-0.589 ± 0.25

row,Variant,abundance fitness
1,R12A,0.177 ± 0.06
2,R12Y,-0.834 ± 0.12
3,R12N,0.009 ± 0.062
4,R12F,-0.91 ± 0.13
5,R12T,-0.237 ± 0.085
6,R12P,-0.126 ± 0.1
7,R12L,-0.637 ± 0.093
8,R12K,-0.276 ± 0.17
9,R12V,-0.508 ± 0.075
10,R12Q,-0.821 ± 0.35
11,R12G,-0.071 ± 0.051
12,R12H,-0.446 ± 0.11
13,V8C,-0.531 ± 0.099
14,V8W,-0.738 ± 0.2
15,V8Q,-0.449 ± 0.35
16,V8I,0.064 ± 0.061
17,V8R,-0.302 ± 0.086
18,V8P,-0.865 ± 0.2
19,V8A,-0.691 ± 0.13
20,V8S,-0.701 ± 0.096
21,V8D,-0.717 ± 0.15
22,V8N,-0.681 ± 0.12
23,V8H,-0.321 ± 0.11
24,V8Y,-0.028 ± 0.066

row,Variant,abundance fitness
1,V8E,-0.206 ± 0.15
2,V8K,-0.427 ± 0.17
3,V8T,-0.047 ± 0.076
4,V8L,-0.192 ± 0.069
5,V8G,-0.779 ± 0.092
6,V8F,-0.373 ± 0.075
7,A9V,-0.853 ± 0.1
8,A9I,-0.737 ± 0.097
9,A9L,-0.662 ± 0.1
10,A9Q,-0.821 ± 0.44
11,A9T,-0.623 ± 0.15
12,A9C,-0.771 ± 0.096
13,A9K,-0.824 ± 0.26
14,A9E,-0.73 ± 0.41
15,A9S,-0.566 ± 0.067
16,A9R,-0.816 ± 0.11
17,A9H,-0.967 ± 0.16
18,A9W,-0.6 ± 0.22
19,A9N,-0.812 ± 0.14
20,A9Y,-0.578 ± 0.078
21,A9D,-1.01 ± 0.16
22,A9P,-0.752 ± 0.17
23,A9G,-0.443 ± 0.072
